The data set concerns MS2 coat protein. Description: apparent KD of MS2 coat protein; designed switch direction (-1 OFF switch, 1 ON switch): -1; higher = weaker reporter binding. Summed up: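 RNA switches sharing common flanks were transcribed by stalled E. coli RNA polymerase on Illumina chips. A doubling series of SNAP-549-labelled MS2 coat protein, from 0.7 or 1.5 nM to 3 µM, was applied in Tris-HCl pH 7.5 buffer with KCl, MgCl2, BSA, DTT, tRNA and Tween-20. Each step lasted 0.8–1.5 h at the bottom of the series and 10–20 min at the top. Normalised cluster fluorescence was curve-fitted, giving apparent KD as the per-design median over clusters.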

Where [1] appears, read: input ligand: microRNA oligo, concentration not stated.
Where [2] appears, read: Eterna round: R95, input ligand: microRNA oligo, concentration not stated.

“UAAGAAUACCGAGGAUAUGGUAGUACAUAUUUACCAGAAGGCGGACUCAACAUGAGGAUCACCCAUGUAUAAAGGGUAUUAGGU [JR_ExcNG1_Sub043] (Eterna round: R96, puzzle: Exclusion NG 1)”: the “apparent KD of MS2 coat protein” value (input ligand: FMN 200 uM) is 94.1 nM, the “apparent KD of MS2 coat protein” value under setting [1] was found to be 58.3 nM and the “apparent KD of MS2 coat protein” value (input ligand: none) was 64.3 nM.
As for “UAAGAAUACUGAGGAUAUGCUAGUUUAUCUCAAGCAGAAGGCGGACUCAACAUGAGGAUCACCCAUGUAAGACGGGUACUAGAU [Ex NG1 #13] (Eterna round: R96, puzzle: Exclusion NG 1)”, the “apparent KD of MS2 coat protein” value (input ligand: FMN 200 uM) was determined as 319 nM, the “apparent KD of MS2 coat protein” value under setting [1] came to 59 nM and the “apparent KD of MS2 coat protein” value (input ligand: none) came to 832 nM.
For “UAAGAGUAUGUUAGGAUAUGCUGGUCCUUGGAUCAGCAGAAGGAACAUGAGGAUCACCCAUGUAGAAUCUUUUA [Mod of JL 17 - Jieux - Brourd's mod of Exclusion 4] (Eterna round: R97, puzzle: Brourd's mod of Exclusion 4)”, the “apparent KD of MS2 coat protein” value is 74.8 nM (input ligand: FMN 200 uM) and 21.3 nM (input ligand: none).
Consider “UAAGCAAGUGAGCCGAUUCACAUGAGGAUCACCCAUGUAAGAGAGGAUAUUUGAUUGGAUCGAUUAGAGAAGGUUCUAAUGUGG [Eternabot solution 25] (Eterna round: R96, puzzle: Exclusion NG 3)”, for which the “apparent KD of MS2 coat protein” value stood at 87.2 nM (input ligand: FMN 200 uM), 28.9 nM under setting [1] and 37.2 nM (input ligand: none).
On the same counts, the results for “UAAGCUCUGUCAGGAUAUCCCUGUAAACGCAACGGAGAAGGGACAUGAGGAUCACCCAUGUGCGGGCCCAACGCGCUUGGGUCC [Gelaisve] (Eterna round: R96, puzzle: Exclusion NG 1)” are 56.6 nM, 20.6 nM and 26.3 nM.
For the sequence “UAAUAACAAGCGAGAUCCUACAUGAGGAUCACCCAUGUGCUCGUCUUAUAAGGUACUGUGACGAAAGUCACGGUACC [Eli 87 + Mat D67] (Eterna round: R97, puzzle: Sensor, turn-off variant 1)”, the “apparent KD of MS2 coat protein” value was determined as 17.9 nM (input ligand: FMN 200 uM) and 20.1 nM (input ligand: none).
On the same counts, the results for “UAAUAGAUGGUUAGGAUAUGCUGGCCUAGGCCGCGGCAGAAGGAACAUGAGGAUCACCCAUGUAGUAGGAUCCA [Eternabot (L2) Solution 15] (Eterna round: R97, puzzle: Brourd's mod of Exclusion 4)” are 204 nM and 98.6 nM.
In the case of “UAAUAGUGAGGAUAUACAGAAUCUGGGUCCCGCGUGUUGAGACAUGAGGAUCACCCAUGUAGAAGGCACAAAAU [Tetiage] (puzzle: Exclusion 2)”, under setting [2], the “apparent KD of MS2 coat protein” value turned out to be 112 nM.
As for “UAAUGUAUAUAGGAUAUCUAGCUGGAAACAGCUAGAGAAGGAUGUACAUGAGGAUCACCCAUGUAAAUCUCAAU [Ex6/12-B1] (Eterna round: R97, puzzle: Exclusion 6)”, the “apparent KD of MS2 coat protein” value is 27.4 nM (input ligand: FMN 200 uM) and 19.1 nM (input ligand: none).
With “UAAUUAAAUGUAGGAUAUCUGCACGUGUAGUGCAGAGAAGGACAUGAGGAUCACCCAUGUAGAUCAAAUUAAAUUAAUUUAAUU [ENG1/5-D3] (Eterna round: R96, puzzle: Exclusion NG 1)”, the “apparent KD of MS2 coat protein” value was determined as 54 nM (input ligand: FMN 200 uM), 21.5 nM under setting [1] and 23.7 nM (input ligand: none).
In the case of “UAAUUAAGUGUGAGGAUAUGCUGGUCCUUGGAUCAGCAGAAGGCACAUGAGGAUCACCCAUGUAAUAUAUAUAU [Mat - Exclusion 4 - JL Mod - D53] (puzzle: Brourd's mod of Exclusion 4)”, the “apparent KD of MS2 coat protein” value runs as follows: (Eterna round: R95, input ligand: FMN 200 uM) 361 nM; under setting [2], 108 nM; (Eterna round: R95, input ligand: none) 104 nM.
Regarding “UAAUUAAUAAGAUCAAUUAAUUAACAUGAGGAUCACCCAUGUGAGGAUAUCAGCUCGUUUAGAGCUGAGAAGGCACAAUAAUUA [ExNG3/17-C2] (Eterna round: R96, puzzle: Exclusion NG 3)”, the “apparent KD of MS2 coat protein” value came to 72 nM (input ligand: FMN 200 uM), 41.6 nM under setting [1] and 46.8 nM (input ligand: none).
Take “UAAUUAAUUAAUUAAUAAUACAUGAGGAUCACCCAUGUAGAUCCUACAUACAAUUUAAGUAGCUCGUCUUAUAAUUA [Stov1/1-A1] (Eterna round: R97, puzzle: Sensor, turn-off variant 1)”: the “apparent KD of MS2 coat protein” value (input ligand: FMN 200 uM) stood at 206 nM and the “apparent KD of MS2 coat protein” value (input ligand: none) was determined as 264 nM.
As for “UAAUUACAUGAGGAUCACCCAUGUGAGGAUAUGUCCAUAUUCGGCAAAUCGGAUAUGGACAGAAGGCACACCGG [JR_Exclusion1_Sub009] (puzzle: Exclusion 1)”, the “apparent KD of MS2 coat protein” value under setting [2] amounted to 55.8 nM.
For “UACACUGCAUGAGGAUCAAACAUGAGGAUCACCCAUGUGUAGCAAGCUUUUUGCUCGUCUUAUAAAUAUGUAGUGUA [Electric Eye 10 - Jieux - Sensor, turn-off variant 1] (Eterna round: R97, puzzle: Sensor, turn-off variant 1)”, the “apparent KD of MS2 coat protein” value reads like this: (input ligand: FMN 200 uM) 13.4 nM; (input ligand: none) 12.9 nM.
“UACAUGAGGAUCACCCAUGUUUUGUCGUGUAUGGUAUUUAUCUAGGAUAUCAAGUUAAUUAUUUAUGAGAAGGAGAAUAUUAAU [JMF's solution 28] (Eterna round: R96, puzzle: Exclusion NG 3)”: the “apparent KD of MS2 coat protein” value is 37 nM (input ligand: FMN 200 uM), 31.7 nM under setting [1] and 39 nM (input ligand: none).
The corresponding values for “UACAUGAGGAUCACCCAUGUUUUGUCGUGUAUGGUAUUUAUCUAGGAUAUCAAGUUACUUAUUUAUGAGAAGGAGAAUAUUAAU [JMF's solution 30] (Eterna round: R96, puzzle: Exclusion NG 3)” are 39.2 nM, 21.2 nM and 25.2 nM.
“UACAUGAGGAUCACCCAUGUUUUGUCGUGUAUGGUAUUUAUCUAGGAUAUCAAUCAAUUUAUUUAUGAGAAGGAGAAUAUUAAU [JMF's solution 49] (Eterna round: R96, puzzle: Exclusion NG 3)”: the “apparent KD of MS2 coat protein” value worked out at 37.8 nM (input ligand: FMN 200 uM), 26 nM under setting [1] and 33.8 nM (input ligand: none).
On the same counts, the results for “UACAUGAGGAUCACCCAUGUUUUGUCGUGUAUGGUAUUUAUCUAGGAUAUCAAUGUAUUUAGUUAUGAGAAGGAGAAUAUUAAU [JMF's solution 46] (Eterna round: R96, puzzle: Exclusion NG 3)” are 38.1 nM, 32 nM and 35.3 nM.
Turning to “UACAUGAGGAUCACCCAUGUUUUGUCGUGUAUGGUAUUUAUCUAGGAUAUCAAUUUAUUUAUUUAUGAGAAGGAGAAUAUUAAU [JMF's solution 5] (Eterna round: R96, puzzle: Exclusion NG 3)”, the “apparent KD of MS2 coat protein” value runs as follows: (input ligand: FMN 200 uM) 36.3 nM; under setting [1], 28.1 nM; (input ligand: none) 41.2 nM.
For the sequence “UACAUGAGGAUCACCCAUGUUUUGUCGUGUAUGGUAUUUAUCUAGGAUAUCGUGUUAUUUAACCACGAGAAGGAGAGUAUCAAU [MOD3 Solution 21 by JMF] (Eterna round: R96, puzzle: Exclusion NG 3)”, the “apparent KD of MS2 coat protein” value under setting [1] was determined as 21.5 nM.

These data come from the supplement of paper PMC9170038.
